We go through one molecule from PMC4141822.

Common to all, as to details: protein: recombinant; tags: none stated (pET24a); label: 5' 32P
For one data set, the target named is T1, Csa5 Y29A (Thermoproteus tenax Kra1, UniProt G4RJZ0 1-130, Y29A).
T1 sequence: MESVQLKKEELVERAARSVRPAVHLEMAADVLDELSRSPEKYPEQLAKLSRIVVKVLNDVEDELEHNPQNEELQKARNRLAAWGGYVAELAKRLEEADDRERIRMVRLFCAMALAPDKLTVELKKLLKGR
Kind of data set: EMSA; shift from 15 uM; EMSA: 100 mM HEPES/KOH pH 7, 10 mM beta-mercaptoethanol, 37 C 30 min, 6% native TBE PAGE; MST: 50 mM Tris-HCl pH 7.4, 150 mM NaCl, 0.05% Tween-20, 37 C 30 min.

The target of a further data set is T2, Csa5 D33A (Thermoproteus tenax Kra1, UniProt G4RJZ0 1-130, D33A).
T2 sequence: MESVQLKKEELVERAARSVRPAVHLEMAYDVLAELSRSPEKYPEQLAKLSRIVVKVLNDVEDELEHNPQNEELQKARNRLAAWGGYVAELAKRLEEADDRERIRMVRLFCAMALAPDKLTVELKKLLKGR
Described as above.

The target of another data set is T3, Csa5 D30A/D33A (Thermoproteus tenax Kra1, UniProt G4RJZ0 1-130, D30A;D33A).
T3 sequence: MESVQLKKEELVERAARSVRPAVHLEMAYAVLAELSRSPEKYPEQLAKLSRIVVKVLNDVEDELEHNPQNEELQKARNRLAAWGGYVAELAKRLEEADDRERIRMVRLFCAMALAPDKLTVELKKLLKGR
The data set can be described thus: EMSA; defined shift from 30 uM; EMSA: 100 mM HEPES/KOH pH 7, 10 mM beta-mercaptoethanol, 37 C 30 min, 6% native TBE PAGE; MST: 50 mM Tris-HCl pH 7.4, 150 mM NaCl, 0.05% Tween-20, 37 C 30 min.

B1: non-target (NT) ssDNA 97 nt (ssDNA)
DNA: GTCGACTAATACGACTCACTATAGGCCTATCGCTTGTCCAACCGGGCTCCTCTATATGTCGTCATTAGCTTACCGCTGAGCAATAACTAGCAAGCTT
Regarding B1, the binding signal in the data set with Csa5 Y29A is ~10 % of WT binding; in the data set with Csa5 D33A it was ~18 % of WT binding; with Csa5 D30A/D33A it was ~4 % of WT binding.
